Values of other authors, collected in article PMC9238359.

Tests used:
Test in all cases: ITC
STX4 N-terminal peptide = STX4 N-terminal peptide (UniProt Q12846)
STX4 soluble (lacks TMD) = STX4 soluble (lacks TMD) (UniProt Q12846)
[1] = target: STX4 soluble lacking N-terminal peptide (UniProt Q12846)

Munc18c (from UniProt O00186)
Kd (STX4 N-terminal peptide): 1500 nM | Kd (STX4 soluble (lacks TMD)): 12 nM | Kd [1]: 735 nM
